Measurements: article PMC5971433

Experiments:
[1] = target: MtrAB (native, the MtrAB component of the MtrCAB complex) (Shewanella oneidensis MR-1); assay: small-angle neutron scattering (SANS); co-purified native MtrCAB at 3.5 and 9.7 mg/ml in 20 mM HEPES pH 7.8, 100 mM NaCl, 2.8 mM Fos-choline-12, 13% D2O (detergent contrast-matched); molecular mass from I(0), ab initio envelope
[2] = target: MtrCAB porin–cytochrome complex (Shewanella oneidensis MR-1)

| stoichiometry N [1] | rate of electron transfer from STC internalised in MtrCAB proteoliposomes to external Fe(III) citrate (absorbance at 550 nm) (nM electrons s^-1) [2] | rate of electron transfer from external sodium dithionite to STC internalised in MtrCAB proteoliposomes (absorbance at 550 nm) (nM electrons s^-1) [2] | Substance |
| --- | --- | --- | --- |
| 1 |  |  | MtrC (native, from the MtrCAB complex) (natural protein) |
|  | 61 | 140 | small tetraheme cytochrome (STC) (natural protein) |
